Measurements reported in patent publication US20090286279.

Legend:
[1] = biological target: sulfo-hirudin ([Leu^1, Thr^2]-hirudin with sulfotyrosine at position 63, expressed in E. coli from pBAD-HirudinTAG) (UniProt P01050)
[2] = biological target: [Leu^1, Thr^2]-63-desulfo-hirudin (Lepirudin (Refludan)) (UniProt P01050)

human α-thrombin (Diapharma)
thrombin activity (cleavage of fluorogenic substrate Boc-Asp(OBzl)-Pro-Arg-MCA, fluorescence intensity over time) [1]: Cleavage of the fluorogenic substrate by thrombin, whose activity is inhibited to different degrees by sulfo-hirudin and desulfo-hirudin | thrombin activity (cleavage of fluorogenic substrate Boc-Asp(OBzl)-Pro-Arg-MCA, fluorescence intensity over time) [2]: Cleavage of the fluorogenic substrate by thrombin, whose activity is inhibited to different degrees by sulfo-hirudin and desulfo-hirudin
